Literature values, collected in PMC9638026.

Biological target: TIRR (Homo sapiens) (UniProt Q9BRJ7)
Conditions: cited from earlier work

TIRR (Homo sapiens), sequence (Q9BRJ7 whole entry): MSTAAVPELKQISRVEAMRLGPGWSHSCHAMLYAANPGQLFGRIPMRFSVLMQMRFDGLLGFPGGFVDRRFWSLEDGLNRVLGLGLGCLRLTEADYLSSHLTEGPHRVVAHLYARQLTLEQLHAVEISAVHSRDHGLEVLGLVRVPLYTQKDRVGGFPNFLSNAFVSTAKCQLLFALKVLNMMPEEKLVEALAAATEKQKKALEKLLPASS
53BP1, sequence (Q12888 whole entry): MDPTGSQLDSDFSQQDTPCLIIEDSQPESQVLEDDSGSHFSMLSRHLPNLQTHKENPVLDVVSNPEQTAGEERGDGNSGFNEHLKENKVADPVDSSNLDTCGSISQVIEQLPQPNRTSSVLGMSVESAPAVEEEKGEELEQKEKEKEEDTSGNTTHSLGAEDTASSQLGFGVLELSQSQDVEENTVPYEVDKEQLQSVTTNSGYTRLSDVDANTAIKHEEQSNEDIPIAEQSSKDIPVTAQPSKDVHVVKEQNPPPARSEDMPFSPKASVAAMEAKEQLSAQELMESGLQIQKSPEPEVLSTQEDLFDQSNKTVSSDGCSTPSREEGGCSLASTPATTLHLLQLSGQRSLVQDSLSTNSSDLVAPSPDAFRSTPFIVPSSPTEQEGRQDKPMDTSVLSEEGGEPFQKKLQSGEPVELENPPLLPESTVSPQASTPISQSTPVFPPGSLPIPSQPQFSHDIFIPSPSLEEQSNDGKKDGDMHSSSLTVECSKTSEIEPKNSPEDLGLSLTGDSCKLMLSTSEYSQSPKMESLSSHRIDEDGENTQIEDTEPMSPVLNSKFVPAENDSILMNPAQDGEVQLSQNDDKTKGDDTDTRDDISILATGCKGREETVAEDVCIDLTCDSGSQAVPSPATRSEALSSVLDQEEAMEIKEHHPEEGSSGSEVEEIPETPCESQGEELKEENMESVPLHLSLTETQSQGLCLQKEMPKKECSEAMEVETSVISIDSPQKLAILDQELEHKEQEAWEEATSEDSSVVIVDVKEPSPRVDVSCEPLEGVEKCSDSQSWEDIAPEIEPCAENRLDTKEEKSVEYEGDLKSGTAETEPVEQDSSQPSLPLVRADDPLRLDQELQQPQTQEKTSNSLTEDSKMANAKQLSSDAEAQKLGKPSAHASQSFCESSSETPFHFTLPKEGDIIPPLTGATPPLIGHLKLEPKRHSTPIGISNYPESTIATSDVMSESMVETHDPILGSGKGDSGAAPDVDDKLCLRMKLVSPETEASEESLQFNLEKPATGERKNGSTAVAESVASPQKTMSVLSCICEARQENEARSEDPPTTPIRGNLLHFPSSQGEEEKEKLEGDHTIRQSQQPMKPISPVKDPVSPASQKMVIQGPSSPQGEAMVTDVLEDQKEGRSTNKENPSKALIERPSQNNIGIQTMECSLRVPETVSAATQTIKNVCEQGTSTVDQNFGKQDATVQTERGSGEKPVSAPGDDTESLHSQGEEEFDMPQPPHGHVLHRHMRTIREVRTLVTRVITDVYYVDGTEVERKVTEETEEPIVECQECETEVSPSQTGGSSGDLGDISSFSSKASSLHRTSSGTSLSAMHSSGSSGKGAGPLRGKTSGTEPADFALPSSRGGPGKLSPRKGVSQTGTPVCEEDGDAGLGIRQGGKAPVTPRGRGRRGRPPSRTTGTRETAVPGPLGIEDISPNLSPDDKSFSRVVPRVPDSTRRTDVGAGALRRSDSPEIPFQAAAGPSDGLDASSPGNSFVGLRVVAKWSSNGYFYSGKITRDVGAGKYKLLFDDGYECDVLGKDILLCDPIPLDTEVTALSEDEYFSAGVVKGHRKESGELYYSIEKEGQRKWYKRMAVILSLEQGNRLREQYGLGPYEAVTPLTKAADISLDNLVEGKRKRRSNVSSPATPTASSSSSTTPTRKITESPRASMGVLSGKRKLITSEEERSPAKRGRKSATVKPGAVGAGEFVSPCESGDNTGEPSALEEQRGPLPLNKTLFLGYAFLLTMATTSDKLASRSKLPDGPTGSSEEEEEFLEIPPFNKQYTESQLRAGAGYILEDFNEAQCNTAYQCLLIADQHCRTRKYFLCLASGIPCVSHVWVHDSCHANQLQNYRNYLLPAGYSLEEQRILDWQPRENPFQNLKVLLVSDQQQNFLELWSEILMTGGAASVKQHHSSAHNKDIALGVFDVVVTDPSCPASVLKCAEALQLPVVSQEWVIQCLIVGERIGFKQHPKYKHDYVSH

## 53BP1 (from UniProt Q12888)
  Kd: 1000 nM
